Common to all, as to assay type: biochemical
One experiment has as its target T1, MMP-9 (Homo sapiens, UniProt P14780).
T1 construct: purchased SIGMA PF024
Briefly: FRET peptide cleavage efficiency with MMP-9 (standard pH 7.5; also pH 6.5). Conditions: for % cleavage MMP-9 t = 15 min: t = 15 min (Table 9); for % cleavage MMP-9 t = 60 min: t = 60 min (Table 9); for % cleavage MMP-9 t = 120 min: t = 120 min (Table 9).

The target of a further experiment is T2, MMP-2 (Homo sapiens, UniProt P08253).
T2 construct: purchased SIGMA PF023
T2 sequence (P08253 110-660): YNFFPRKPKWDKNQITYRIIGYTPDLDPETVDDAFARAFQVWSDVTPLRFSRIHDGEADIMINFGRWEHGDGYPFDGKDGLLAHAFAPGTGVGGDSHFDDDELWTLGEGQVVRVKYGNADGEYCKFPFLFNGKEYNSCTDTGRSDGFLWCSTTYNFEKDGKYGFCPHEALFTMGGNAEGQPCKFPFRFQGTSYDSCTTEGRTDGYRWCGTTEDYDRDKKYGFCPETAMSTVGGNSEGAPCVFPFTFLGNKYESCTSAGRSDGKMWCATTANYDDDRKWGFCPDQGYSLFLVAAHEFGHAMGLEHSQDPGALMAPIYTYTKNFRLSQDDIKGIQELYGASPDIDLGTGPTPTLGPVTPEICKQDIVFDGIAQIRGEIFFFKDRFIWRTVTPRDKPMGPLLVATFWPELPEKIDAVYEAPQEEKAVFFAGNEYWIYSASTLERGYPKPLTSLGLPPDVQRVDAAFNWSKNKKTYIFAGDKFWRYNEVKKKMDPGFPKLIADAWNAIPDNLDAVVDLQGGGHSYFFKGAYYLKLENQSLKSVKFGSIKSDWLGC
Briefly: FRET peptide cleavage efficiency with MMP-2.

In a further experiment the target is uPA (Homo sapiens, UniProt P00749). Briefly: FRET peptide cleavage efficiency with uPA. To be noted: 200 uM linker, 1 ug/ml protease, 37° C., buffer A pH 8.5.
A further experiment deals with Kallikrein-3 (Homo sapiens, UniProt P07288). Briefly: FRET peptide cleavage efficiency with Kallikrein-3. To be noted: peptide 200 uM, Kallikrein-3 2 μg/ml, 37° C., pH 8.
Chain of Kallikrein-3 (P07288 25-261, species assumed): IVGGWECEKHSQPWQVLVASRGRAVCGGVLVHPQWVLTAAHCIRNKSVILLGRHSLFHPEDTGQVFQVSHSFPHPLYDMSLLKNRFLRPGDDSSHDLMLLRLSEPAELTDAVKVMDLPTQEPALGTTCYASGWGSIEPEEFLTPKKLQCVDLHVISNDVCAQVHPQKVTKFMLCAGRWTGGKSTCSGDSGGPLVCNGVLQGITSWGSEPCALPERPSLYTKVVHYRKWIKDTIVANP
The target in the next experiment is T3, matriptase (Homo sapiens, UniProt Q9Y5Y6).
T3 construct: purchased R&D Systems 3946-SEB
T3 sequence (Q9Y5Y6 615-855 limits assumed): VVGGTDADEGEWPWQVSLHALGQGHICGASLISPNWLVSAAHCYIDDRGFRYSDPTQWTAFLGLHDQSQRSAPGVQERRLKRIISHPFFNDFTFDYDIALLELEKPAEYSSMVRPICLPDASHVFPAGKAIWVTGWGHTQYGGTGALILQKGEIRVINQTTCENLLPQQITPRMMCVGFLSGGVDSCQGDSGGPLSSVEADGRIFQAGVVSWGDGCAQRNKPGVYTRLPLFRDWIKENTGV
Briefly: FRET peptide cleavage efficiency with matriptase. Conditions: 200 uM linker, 1 ug/ml protease, 37° C., buffer B pH 9.0.

Another experiment has as its target T4, MMP-7 (Homo sapiens, UniProt P09237).
T4 construct: purchased SIGMA CC1059
T4 sequence (P09237 95-267): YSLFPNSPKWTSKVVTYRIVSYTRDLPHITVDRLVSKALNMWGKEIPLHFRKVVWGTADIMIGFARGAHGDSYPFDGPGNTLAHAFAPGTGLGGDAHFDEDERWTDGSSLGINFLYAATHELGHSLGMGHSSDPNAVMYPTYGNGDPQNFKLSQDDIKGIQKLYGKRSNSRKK
Briefly: FRET peptide cleavage efficiency with MMP-7 (standard pH 7.5; also pH 6.5). Conditions: for % cleavage MMP-7 t = 15 min: t = 15 min (Table 9); for % cleavage MMP-7 t = 60 min: t = 60 min (Table 9); for % cleavage MMP-7 t = 120 min: t = 120 min (Table 9).

Setting [1] is: t = 15 min, 200 uM linker, 1 ug/ml protease, 37° C., buffer C pH 7.5.
Setting [2] is: t = 60 min, 200 uM linker, 1 ug/ml protease, 37° C., buffer C pH 7.5.
[3] abbreviates: t = 120 min, 200 uM linker, 1 ug/ml protease, 37° C., buffer C pH 7.5.

Square brackets hold non-standard residues; d marks the D form. Ends that are not written are not given here. Tyr(3-NO2) = N[C@@H](Cc1ccc(O)c([N+](=O)[O-])c1)C(=O)O; 2Abz = Nc1ccccc1C(=O)O

T1 sequence (P14780 94-707): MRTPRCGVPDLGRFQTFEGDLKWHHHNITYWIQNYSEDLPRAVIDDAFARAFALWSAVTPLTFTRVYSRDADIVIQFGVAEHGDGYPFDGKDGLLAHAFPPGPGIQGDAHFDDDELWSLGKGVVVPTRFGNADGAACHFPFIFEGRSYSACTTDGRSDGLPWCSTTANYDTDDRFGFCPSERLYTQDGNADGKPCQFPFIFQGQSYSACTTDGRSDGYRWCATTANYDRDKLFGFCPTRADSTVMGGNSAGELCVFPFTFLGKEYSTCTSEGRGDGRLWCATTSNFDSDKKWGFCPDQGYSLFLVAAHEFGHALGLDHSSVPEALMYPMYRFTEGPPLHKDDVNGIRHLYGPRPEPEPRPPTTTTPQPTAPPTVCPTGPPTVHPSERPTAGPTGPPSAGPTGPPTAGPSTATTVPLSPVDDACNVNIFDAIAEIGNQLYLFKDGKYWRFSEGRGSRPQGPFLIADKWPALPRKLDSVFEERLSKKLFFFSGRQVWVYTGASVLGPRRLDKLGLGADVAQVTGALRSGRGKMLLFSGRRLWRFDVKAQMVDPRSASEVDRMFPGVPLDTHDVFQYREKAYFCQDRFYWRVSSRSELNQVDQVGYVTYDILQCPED

Take “RGRRHSSKLQPLGYFGKL ([2Abz]RGRRHSSKLQPLGYFGKL[Tyr(3-NO2)]-NH2) [LNK062]”: in the experiment with MMP-9, the “% cleavage MMP-9 t = 15 min” value stood at 41%, the “% cleavage MMP-9 t = 60 min” value was 100% and the “% cleavage MMP-9 t = 120 min” value is listed as 100%. Besides, the “% cleavage MMP-2 t = 15 min” value in the experiment with MMP-2 (t = 15 min (Table 9)) amounted to 71%. For the same substance, in the experiment with MMP-2 (setting [1]), the “% cleavage MMP-2 t = 15 min” value came out at 71%. Besides, the “% cleavage MMP-2 t = 60 min” value in the experiment with MMP-2 (t = 60 min (Table 9)) is given as 100%. Besides, in the experiment with MMP-2 (setting [2]), the “% cleavage MMP-2 t = 60 min” value came out at 100%. For the same substance, the “% cleavage MMP-2 t = 120 min” value with MMP-2 (t = 120 min (Table 9)) was 100%. Further, the “% cleavage MMP-2 t = 120 min” value with MMP-2 (setting [3]) is listed as 100%. For the same substance, in the experiment with uPA, the “% cleavage uPA t = 15 min” value is 0%, the “% cleavage uPA t = 60 min” value came out at 0% and the “% cleavage uPA t = 120 min” value stood at 0%. Moreover, in the experiment with Kallikrein-3, the “Kallikrein-3 t = 1 h % cleavage” value came to 28%, the “Kallikrein-3 t = 3 h % cleavage” value was 79%, the “Kallikrein-3 t = 6 h % cleavage” value stood at 100% and the “Kallikrein-3 t = 8 h % cleavage” value is 100%. Besides, in the experiment with matriptase, the “% cleavage Matriptase t = 15 min” value came out at 66%, the “% cleavage Matriptase t = 60 min” value amounted to 100% and the “% cleavage Matriptase t = 120 min” value turned out to be 100%. In the experiment with MMP-7, the “% cleavage MMP-7 t = 15 min” value turned out to be 0%, the “% cleavage MMP-7 t = 60 min” value is on record as 0% and the “% cleavage MMP-7 t = 120 min” value turned out to be 0%.

As for “RSSYRSL ([2Abz]RSSYRSL[Tyr(3-NO2)]-NH2) [LNK075]”, in the experiment with MMP-9, the “% cleavage MMP-9 t = 15 min” value is listed as 1%, the “% cleavage MMP-9 t = 60 min” value was determined as 5% and the “% cleavage MMP-9 t = 120 min” value was determined as 10%. Further, the “% cleavage MMP-2 t = 15 min” value with MMP-2 (t = 15 min (Table 9)) is listed as 16%. The “% cleavage MMP-2 t = 15 min” value in the experiment with MMP-2 (setting [1]) was 16%. In addition, the “% cleavage MMP-2 t = 60 min” value with MMP-2 (t = 60 min (Table 9)) is 60%. Further, in the experiment with MMP-2 (setting [2]), the “% cleavage MMP-2 t = 60 min” value is reported as 60%. In the experiment with MMP-2 (t = 120 min (Table 9)), the “% cleavage MMP-2 t = 120 min” value is listed as 86%. For the same substance, the “% cleavage MMP-2 t = 120 min” value with MMP-2 (setting [3]) is 86%. In the experiment with uPA, the “% cleavage uPA t = 15 min” value is 2%, the “% cleavage uPA t = 60 min” value worked out at 9% and the “% cleavage uPA t = 120 min” value was 19%. Moreover, in the experiment with Kallikrein-3, the “Kallikrein-3 t = 1 h % cleavage” value was 49%, the “Kallikrein-3 t = 3 h % cleavage” value amounted to 83%, the “Kallikrein-3 t = 6 h % cleavage” value is on record as 94% and the “Kallikrein-3 t = 8 h % cleavage” value is 100%. For the same substance, in the experiment with matriptase, the “% cleavage Matriptase t = 15 min” value is 8%, the “% cleavage Matriptase t = 60 min” value came out at 33% and the “% cleavage Matriptase t = 120 min” value came to 56%. In the experiment with MMP-7, the “% cleavage MMP-7 t = 15 min” value was determined as 0%, the “% cleavage MMP-7 t = 60 min” value is 0% and the “% cleavage MMP-7 t = 120 min” value is on record as 0%.

Regarding “SGRHSSKLQPLGYFGKL ([2Abz]SGRHSSKLQPLGYFGKL[Tyr(3-NO2)]-NH2) [LNK063]”, in the experiment with MMP-9, the “% cleavage MMP-9 t = 15 min” value worked out at 23%, the “% cleavage MMP-9 t = 60 min” value turned out to be 93% and the “% cleavage MMP-9 t = 120 min” value came out at 100%. Also, in the experiment with MMP-2 (t = 15 min (Table 9)), the “% cleavage MMP-2 t = 15 min” value was 82%. In addition, in the experiment with MMP-2 (setting [1]), the “% cleavage MMP-2 t = 15 min” value was determined as 82%. For the same substance, the “% cleavage MMP-2 t = 60 min” value with MMP-2 (t = 60 min (Table 9)) is recorded as 100%. For the same substance, the “% cleavage MMP-2 t = 60 min” value in the experiment with MMP-2 (setting [2]) came to 100%. In addition, the “% cleavage MMP-2 t = 120 min” value with MMP-2 (t = 120 min (Table 9)) is given as 100%. The “% cleavage MMP-2 t = 120 min” value in the experiment with MMP-2 (setting [3]) worked out at 100%. Besides, in the experiment with uPA, the “% cleavage uPA t = 15 min” value came out at 0%, the “% cleavage uPA t = 60 min” value worked out at 0% and the “% cleavage uPA t = 120 min” value was 0%. In addition, in the experiment with Kallikrein-3, the “Kallikrein-3 t = 1 h % cleavage” value was determined as 7%, the “Kallikrein-3 t = 3 h % cleavage” value turned out to be 20%, the “Kallikrein-3 t = 6 h % cleavage” value is listed as 37% and the “Kallikrein-3 t = 8 h % cleavage” value stood at 45%. For the same substance, in the experiment with matriptase, the “% cleavage Matriptase t = 15 min” value is 9%, the “% cleavage Matriptase t = 60 min” value was found to be 35% and the “% cleavage Matriptase t = 120 min” value stood at 62%. In the experiment with MMP-7, the “% cleavage MMP-7 t = 15 min” value is 2%, the “% cleavage MMP-7 t = 60 min” value worked out at 3% and the “% cleavage MMP-7 t = 120 min” value came to 0%.
